Measured values taken from patent publication US20220411483A1 (Chugai, published 2022).

Assays:
[1] = biological target: T1, FcγRIIb extracellular domain with C-terminal His tag (human, UniProt P31994 43-217); assay: SPR (Biacore); KD of IL6R-B3/IL6R-L / KD of variant
T1 construct: extracellular domain; also called FcgRIIb
T1 sequence (looked up): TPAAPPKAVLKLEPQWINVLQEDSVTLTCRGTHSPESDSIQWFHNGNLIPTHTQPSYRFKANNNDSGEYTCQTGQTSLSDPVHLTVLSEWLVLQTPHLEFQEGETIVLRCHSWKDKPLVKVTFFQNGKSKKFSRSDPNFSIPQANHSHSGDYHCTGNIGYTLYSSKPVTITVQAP

[2] = biological target: T1, FcγRIIb extracellular domain with …; assay: SPR (Biacore), FcgR as analyte
[3] = biological target: T2, FcγRIa extracellular domain with C-terminal His tag (human, UniProt P12314 16-292); assay: SPR (Biacore), FcgR as analyte
T2 construct: also called FcgRIa

mouse FcγRI = biological target: T3, mouse FcγRI (mouse, UniProt P26151 25-297, limits assumed); assay: SPR
T3 construct: also called mFcγRI
T3 sequence (looked up): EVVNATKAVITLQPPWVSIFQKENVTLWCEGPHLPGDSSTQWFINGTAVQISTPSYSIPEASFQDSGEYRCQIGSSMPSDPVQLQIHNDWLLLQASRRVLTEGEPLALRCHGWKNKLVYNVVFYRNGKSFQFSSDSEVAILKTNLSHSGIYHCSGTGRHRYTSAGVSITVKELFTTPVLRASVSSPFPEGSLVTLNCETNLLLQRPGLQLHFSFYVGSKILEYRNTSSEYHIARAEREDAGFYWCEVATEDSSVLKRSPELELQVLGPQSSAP

mouse FcγRIV = biological target: T4, mouse FcγRIV (mouse, UniProt A0A0B4J1G0 21-203); assay: SPR
T4 construct: also called mFcγRIV
T4 sequence: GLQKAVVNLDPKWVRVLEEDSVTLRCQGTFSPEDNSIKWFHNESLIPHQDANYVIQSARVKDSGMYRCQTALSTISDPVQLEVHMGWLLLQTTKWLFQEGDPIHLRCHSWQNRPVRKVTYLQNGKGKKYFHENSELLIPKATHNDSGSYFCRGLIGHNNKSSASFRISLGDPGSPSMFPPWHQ

T2 sequence (P12314 16-292): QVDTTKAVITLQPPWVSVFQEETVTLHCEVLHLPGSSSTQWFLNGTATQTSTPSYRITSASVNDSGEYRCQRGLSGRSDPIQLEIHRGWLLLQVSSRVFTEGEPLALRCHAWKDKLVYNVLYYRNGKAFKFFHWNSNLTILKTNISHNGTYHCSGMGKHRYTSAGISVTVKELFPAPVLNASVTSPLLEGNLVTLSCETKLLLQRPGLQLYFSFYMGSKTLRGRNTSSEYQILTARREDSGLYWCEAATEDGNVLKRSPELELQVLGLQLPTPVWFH

B1: IL6R-BP198/IL6R-L (antibody, human IgG1, kappa, name in EU numbering)
heavy: QVQLQESGPGLVKPSETLSLTCAVSGHSISHDHAWSWVRQPPGEGLEWIGFISYSGITNYNPSLQGRVTISRDNSKNTLYLQMNSLRAEDTAVYYCARSLARTTAMDYWGEGTLVTVSSASTKGPSVFPLAPSSKSTSGGTAALGCLVKDYFPEPVTVSWNSGALTSGVHTFPAVLQSSGLYSLSSVVTVPSSSLGTQTYICNVNHKPSNTKVDKKVEPKSCDKTHTCPPCPAPDYLGGDSVFLFPPKPKDTLMISRTPEVTCVVVDVSDEDGEVKFNWYVDGVEVHNAKTKPREEQYNSTYRVVSVLTVLHQDWLNGKEYKCKVSNAALPKPIEKTISKAKGQPREPQVYTLPPSRDELTKNQVSLTCLVKGFYPSDIAVEWESNGQPENNYKTTPPVLDSDGSFFLYSKLTVDKSRWQQGNVFSCSVMHEALHNHYTQESLSLSP
light: not shown
notes: IgG1; alterations on IL6R-B3, EU numbering
Relative FcgRIIb-binding Activity [1]: 15.7 fold vs IL6R-B3/IL6R-L | Kd [2]: 200 nM | Kd [3]: 11 nM

B2: VH3/L (WT)-mIgG1 (antibody)
heavy: QVQLQESGPGLVKPSETLSLTCAVSGHSISHDHAWSWVRQPPGEGLEWIGFISYSGITNYNPSLQGRVTISRDNSKNTLYLQMNSLRAEDTAVYYCARSLARTTAMDYWGEGTLVTVSSAKTTPPSVYPLAPGSAAQTNSMVTLGCLVKGYFPEPVTVTWNSGSLSSGVHTFPAVLQSDLYTLSSSVTVPSSTWPSETVTCNVAHPASSTKVDKKIVPRDCGCKPCICTVPEVSSVFIFPPKPKDVLTITLTPKVTCVVVDISKDDPEVQFSWFVDDVEVHTAQTQPREEQFNSTFRSVSELPIMHQDWLNGKEFKCRVNSAAFPAPIEKTISKTKGRPKAPQVYTIPPPKEQMAKDKVSLTCMITDFFPEDITVEWQWNGQPAENYKNTQPIMDTDGSYFVYSKLNVQKSNWEAGNTFTCSVLHEGLHNHHTEKSLSHSPGK
light: not shown
notes: mouse IgG1 Fc region
binding result (mouse FcγRI): no binding | binding result (mouse FcγRIV): no binding
